Results from patent publication US5574007A, “Polypeptide capable of interacting with thrombin” (Asahi Kasei Kogyo Kabushiki Kaisha, priority 1990, dated 1996).
Blank lines part the entries; values can stand above or below the compound they belong to. Positions of bridges follow the written chain, without caps; N, C: chain ends. Residues, ends and D or L forms follow the SMILES beside them.

Tests used:
[1] = biological target: binding of thrombin to thrombomodulin (Homo sapiens, UniProt P00734); experiment: Activity of synthetic peptides to inhibit the binding of thrombin to thrombomodulin (Dixon plot); details: D123Asp-coated plate, crosslinked synthetic peptide
Procedure: The acitvity of each of the synthetic peptides to inhibit the binding of thrombin to thrombomodulin is determined by the following method. D123Asp purified in Example 1-(4)-(b) is diluted with 0.1M sodium bicarbonate buffer (pH 9.2) so that the final concentration of D123Asp becomes 1.5 μg/ml. 100 μl of the diluent is dispensed to each well of a flat-bottomed 96 well-microtiter plate for ELISA. The plate is allowed to stand for 3 hours, and then each well is washed with 0.1M sodium bicarbonate buffer (pH 9.2). 150 μl of 50 mM Tris-HCl buffer (pH 7.5) containing 0.1M NaCl and 1% BSA is dispensed to each well, and the plate is allowed to stand for 2 hours so that each well is subjected to blocking. To each well of the plate is added a solution obtained by reacting thrombin (0 to 0.4 μg/μl), which has been diluted with a washing solution {50 mM Tris-HCl buffer (pH 7.5) containing 0.5% BSA and 0.05% Tween-20}, with various concentrations of the synthetic peptide solutions at 37° C. for 30 minutes, and a reaction is conducted at room temperature for 1 hour. The plate is washed again with the above-mentioned washing solution. To each well of the plate is added 100 μl of 50 mM Tris-HCl buffer (pH 8.0) containing 0.1M NaCl, in which 200 μM H-D-Phe-Pip-Arg-pNA (Kabi Virum, Sweden, catalog No. S2238) has been dissolved, to thereby liberate pNA (paranitroanilin). A few hours later, the absorbance of the liberated pNA is measured at a wavelength of 410 nm. To determine the inhibition constant (Ki) of each of the synthetic peptides, 100/v in which v represents the thrombin activity (expressed in %) at the time when a peptide having a predetermined concentration is added, assuming the thrombin activity in the absence of a peptide as 100%, is plotted in rectangular coordinates against the concentration of the peptide to-obtain a graph (Dixon plot). The inhibition constant (Ki) is defined as the reading of the intersection of the plotted line with the abscissa.

[2] = biological target: T1, thrombin-catalyzed activation of GDPC (protein C having no Gla domain) (Homo sapiens, UniProt P00734); experiment: Same assay with protein C having no Gla domain (GDPC) instead of protein C; format: biochemical; details: calcium ion concentrations of 0 to 5 mM
T1 construct: 3 μl of thrombin (manufactured and sold by Sigma Chemical Company, catalog No. T-6759, 20 ng/μl); purchased Sigma Chemical Company T-6759
Procedure: (§1) With respect to the polypeptide solutions (0.4 μg/ml) purified and quantitated in Example 1-(5)-(d), the activity of polypeptides to promote the thrombin-catalyzed activation of protein C is measured according to the method described in Example 1-(3). The CaCl2 concentration of 10×Assay buffer is adjusted so that the activities at calcium ion concentrations of 0 to 5 mM are determined. Also, with respect to protein C having no Gla domain (hereinafter referred to as "GDPC") which is prepared by chymotrypsin treatment according to the method of N. L. Esmon [J. Biol. Chem. Vol. 258, pp. 5548-5553 (1983)]and which is used instead of protein C, the activity measurement is carried out within the same range of calcium concentration.

[3] = biological target: T2, thrombin-catalyzed activation of protein C (Homo sapiens, UniProt P00734); experiment: Assay of the activity to promote the thrombin-catalyzed activation of protein C (Example 1-(3), fluorogenic substrate Boc-Leu-Ser-Thr-Arg-MCA); format: biochemical, bovine; design: 3 μl of thrombin (manufactured and sold by Sigma Chemical Company, catalog No. T-6759, 20 ng/μl); purchased Sigma Chemical Company T-6759; details: for activity to promote the thrombin-catalyzed activation of protein C (in words): purified polypeptide from COS-1, calcium ion concentrations of 0 to 5 mM
Procedure: 5 μl of the supernatant of the culture of COS-1 cells is transformed by each of plasmids pSV2TMD7 and pSV2TMD8, 3 μl of thrombin (manufactured and sold by Sigma Chemical Company, catalog No. T-6759, 20 ng/μl), 5 μl of 10×Assay Buffer containing 1M NaCl, 30 mM CaCl2, 1% calf serum albumin and 0.5M tris-HCl buffer (pH 8.5) and 29.5 μl of distilled water are mixed together and allowed to stand at 37° C. for 5 minutes, followed by the addition of 7.5 μl protein C (derived from bovine, 0.2 μg/μl) to the mixture. The reaction is conducted at 37° C. for 30 minutes, and terminated by adding 6.25 μl of a stop solution (20 mM tris-HCl buffer, pH7.5, containing 100 mM NaCl, 0.3A280 anti-thrombin III and 100 μg/ml heparin).
The activity of activated protein C is measured by first adding 10 μl of Boc-Leu-Ser-Thr-Arg-MCA (manufactured and sold by Peptide Institute, The Foundation (Japan), 5 mg/ml), 5 μl of 5M CsCl and 495 μl of a substrate reaction buffer (50 mM tris-HCl buffer containing 100 mM NaCl (pH 8.5)), next allowing the reaction to proceed at 37° C. for 20 minutes, then terminating the reaction by adding 55 μl of acetic acid, and finally measuring the concentration of liberated AMC ([…]) by means of a spectrofluorometer (model RF-540, manufactured and sold by Shimadzu Corporation, Japan) at an excitation wavelength of 380 nm and an emission wavelength of 440 nm. The obtained fluorescence intensity is compared with the fluorescence intensity of a solution having a known AMC concentration to determine the amount of the liberated AMC. The value obtained by deducting from this amount the amount of AMC in the case where an aqueous solution containing no polypeptide of the present invention is added, represents the activity of the polypeptide to promote the thrombin-catalyzed activation of protein C. The activity to produce 1 nM of activated protein C per ml of reaction mixture and per minute is defined as 1 u (unit).
as §1

[4] = biological target: T2, thrombin-catalyzed activation of protein C; experiment: Activated protein C formation against reaction time with purified polypeptide (Example 4-(6)); format: biochemical
Procedure: To 0.02M Tris-HCl buffer (pH 8.5) containing 0.1M NaCl, 0.5 mM CaCl2 and 10 mg/ml BSA are added 50 μg/ml protein C, 5 nM thrombin and 5 nM of each of the purified polypeptides of the present invention, and reacted at 37° C. To each of the reaction mixtures are added 300 μg/ml antithrombin III (manufactured and sold by Sigma Chemical Company, U.S.A.) and 5 mM EDTA to terminate the reaction. Then, the amount of the activated protein C produced by the reaction is determined by the method described in Example 1-(3) in which a synthetic substrate is used.

[5] = biological target: thrombin-catalyzed conversion of fibrinogen to fibrin (Homo sapiens, UniProt P00734); experiment: Anticoagulating activity: clotting time of a fibrinogen solution; format: biochemical; details: polypeptide purified from Acremonium chrysogenum (Example 6(4))
Procedure: The activity of each of the polypeptides of the present invention to inhibit the thrombin-catalyzed conversion of fibrinogen to fibrin so as to inhibit blood coagulation, is determined by measuring clotting time using Coagulometer KC-10A (manufactured and sold by Heinrich Amelung A.G., Germany). Illustratively stated, to 0.05M Tris-HCl buffer (pH 7.5) containing 5 mM CaCl2 and 0.1M NaCl is added 3.0 μg of fibrinogen (Fraction I, manufactured and sold by Sigma Chemical Company, U.S.A.). To the resultant mixture is added 0 to 50 nM of each of the purified polypeptides of the present invention. Then, 10 nM thrombin is added to the mixture in such an amount that the total amount of the mixture becomes 0.4 ml, and then the coagulation time of the mixture is measured.

[6] = system: thrombin-catalyzed platelet aggregation; experiment: Platelet aggregation-inhibiting activity (Platelet Rich Plasma, HEMA TRACER IV); format: cell-based; details: polypeptide purified from Acremonium chrysogenum (Example 6(4))
Procedure: The activity of each of the polypeptides of the present invention to inhibit the thrombin-catalyzed platelet aggregation is evaluated using platelet aggregation measuring apparatus HEMA TRACER IV (manufactured and sold by NIKO Bioscience, Inc., Japan). Measurement is carried out according to the manual attached thereto. When 40 μl of a 20 NIH unit/ml thrombin solution (manufactured and sold by SIGMA Chemical Co., U.S.A., T 6759) is added to 180 μl of a Platelet Rich Plasma (PRP) platelet solution (3×10^5 cells/μl) and incubated, the aggregation of platelets occurs. […] The aggregation of platelets is determined on the basis of the transparency, assuming the transparency of Platelet Poor Plasma (PPP) solution as 100%. The ratio of platelet aggregation is plotted against the incubation time (0 min: the time when thrombin or a mixture of thrombin and one of the polypeptides is added to the PRP solution). It is confirmed that the platelet aggregation is inhibited when one of the polypeptides of the present invention is added.

Compound: D123Ala: polypeptide up to the 516th position of human thrombomodulin wherein the 367th Asp is changed to Ala (pSV2TMM1)
activity in the activation of GDPC (in words) [2]: low activity
activity to promote the thrombin-catalyzed activation of protein C (in words) [3]: low activity

Compound: D123Glu: polypeptide up to the 516th position of human thrombomodulin wherein the 367th Asp is changed to Glu (pSV2TMM2)
activity relative to that of D123Asp ([3]; activation of protein C): 1.2 times
activity to promote the thrombin-catalyzed activation of protein C (in words) [3]: activity similar to that of D123Asp

Compound: E456Glu: 367th to 480th amino acid residues of human thrombomodulin in which the 367th Asp is replaced by Glu (pSV2TMM3)
amount of activated protein C with reaction time (in words) ([4]; 5 nM polypeptide, 5 nM thrombin, 50 μg/ml protein C, 37° C., polypeptide from COS-1 or CHO cells): increased with the lapse of reaction time
amount of activated protein C with reaction time (in words) ([4]; polypeptide purified from Acremonium chrysogenum strains D71 and M31 (Example 6(4))): increased with the lapse of reaction time
clotting time of fibrinogen solution against amount of polypeptide (in words) [5]: the longer the clotting time
thrombin-catalyzed platelet aggregation (in words) [6]: inhibited
activity relative to that of E456Asp ([3]; activation of protein C): 1.3 times

Compound: CC[C@H](C)[C@H](NC(=O)[C@H](CC(=O)O)NC(=O)[C@@H](NC(=O)[C@@H]1CSSC[C@H](NC(=O)[C@@H](N)CCC(=O)O)C(=O)N2CCC[C@H]2C(=O)N[C@@H](CCC(=O)O)C(=O)NCC(=O)N[C@@H](Cc2ccc(O)cc2)C(=O)N[C@@H]([C@@H](C)CC)C(=O)N[C@@H](CC(C)C)C(=O)N[C@@H](CC(=O)O)C(=O)N[C@@H](CC(=O)O)C(=O)NCC(=O)N[C@@H](Cc2ccccc2)C(=O)N[C@@H]([C@@H](C)CC)C(=O)N1)[C@@H](C)O)C(=O)N[C@@H](CC(=O)O)C(=O)N[C@@H](CCC(=O)O)C(=O)O [Polypeptide C, Glu-Cys-Pro-Glu-Gly-Tyr-Ile-Leu-Asp-Asp-Gly-Phe-Ile-Cys-Thr-Asp-Ile-Asp-Glu] (H-ECPEGYILDDGFICTDIDE-OH; disulfide 2-14)
Ki ([1]; read-out: Inhibition constant (Ki)): 95 µM

Other lines, results leading:

Inhibition constant (Ki) [1]: no inhibiting activity
Compound: CSCC[C@H](N)C(=O)N[C@@H](Cc1ccccc1)C(=O)N[C@H]1CSSC[C@@H](C(=O)N[C@@H](CC(=O)O)C(=O)O)NC(=O)[C@H](CC(=O)O)NC(=O)[C@H](C)NC(=O)[C@@H]2CCCN2C(=O)[C@H](C)NC(=O)[C@H](C)NC(=O)[C@H]([C@@H](C)O)NC(=O)[C@H](CCC(N)=O)NC(=O)[C@H](CC(N)=O)NC1=O [Polypeptide A, Met-Phe-Cys-Asn-Gln-Thr-Ala-Ala-Pro-Ala-Asp-Cys-Asp] (H-MFCNQTAAPADCD-OH; disulfide 3-12)

Inhibition constant (Ki) [1]: no inhibiting activity
Compound: C[C@H](N)C(=O)N[C@H]1CSSC[C@@H](C(=O)N[C@@H](CCC(=O)O)C(=O)O)NC(=O)[C@H](CO)NC(=O)[C@H](C)NC(=O)[C@H](CCC(N)=O)NC(=O)[C@H]([C@@H](C)O)NC(=O)[C@H](CC(N)=O)NC(=O)[C@@H]2CCCN2C(=O)[C@H](CC(=O)O)NC(=O)[C@H](C)NC(=O)[C@H](CC(=O)O)NC(=O)[C@H](C)NC(=O)[C@@H]2CCCN2C1=O [Polypeptide B, Ala-Cys-Pro-Ala-Asp-Ala-Asp-Pro-Asn-Thr-Gln-Ala-Ser-Cys-Glu] (H-ACPADADPNTQASCE-OH; disulfide 2-14)
